Data reported in PMC8993412.

Tests used:
[1] = molecular target: SARS-CoV-2 Nsp7 (recombinant) (SARS-CoV-2) (UniProt P0DTD1); test: ELISA
[2] = molecular target: SARS-CoV-2 Nsp15 (recombinant) (SARS-CoV-2) (UniProt P0DTD1); test: ELISA

B1: IgG 16658 (anti-Nsp7) (antibody, V domains shown)
VH: EVQLVESGGGLVQPGGSLRLSCAASGFNLSYYSIHWVRQAPGKGLEWVASIYPYYSYTYYADSVKGRFTISADTSKNTAYLQMNSLRAEDTAVYYCARVGFDYWGQGTLVTVSS
VL: DIQMTQSPSSLSASVGDRVTITCRASQSVSSAVAWYQQKPGKAPKLLIYSASSLYSGVPSRFSGSRSGTDFTLTISSLQPEDFATYYCQQYAGLITFGQGTKVEIK
- EC50 [1]: 130 nM

B2: IgG 16684 (anti-Nsp15) (antibody, V domains shown)
VH: EVQLVESGGGLVQPGGSLRLSCAASGFNFSSSSIHWVRQAPGKGLEWVASIYSSYGYTYYADSVKGRFTISADTSKNTAYLQMNSLRAEDTAVYYCARVSYYYPYSWYFYGYYGGLDYWGQGTLVTVSS
VL: DIQMTQSPSSLSASVGDRVTITCRASQSVSSAVAWYQQKPGKAPKLLIYSASSLYSGVPSRFSGSRSGTDFTLTISSLQPEDFATYYCQQSSYSLITFGQGTKVEIK
- EC50 [2]: 19 nM
